In the RNAGym collection of RNA variant scans (doi:10.7554/elife.80360):

B1: HDV Ribozyme (parent)
chain: GGCCGGCAUGGUCCCAGCCUCCUCGCUGGCGCCGGCUGGGCAACAUUCCGAGGGGACCGUCCCCUCGGUAAUGGCGAAUGGGACCCA

Variants of: B1
Assay: self-cleavage, relative activity (ratio to wild type); higher = more cleavage; co-transcriptional
With G73C A77C the self-cleavage was 0.287. Work on G73C A77U yielded a self-cleavage of 0.151. For G74U A77G, the self-cleavage was 0.312. Work on A70U A77G yielded a self-cleavage of 0.665. Variant A70U A77U has a self-cleavage of 0.35. U72G A87C gave a self-cleavage of 0.709. U72G A87U gave a self-cleavage of 0.735. Variant A71U A87C has a self-cleavage of 0.913. Work on U72G G82A yielded a self-cleavage of 0.0978. With A71G G73A the self-cleavage was 0.689. With C75G G76A the self-cleavage was 0.196. Variant C75G G76U has a self-cleavage of 0.237. With U72A G73U the self-cleavage was 0.612. For U72A G73A, the self-cleavage was 0.617. A71U C75U gave a self-cleavage of 0.218. In the case of G73C C84A, the self-cleavage is reported as 0.277. G73C C84G showed a self-cleavage of 0.086. Variant G73C C84U has a self-cleavage of 0.321. For U72G C86U, the self-cleavage was 0.705. A71G U72G gave a self-cleavage of 0.516. Work on G74U G76A yielded a self-cleavage of 0.453. In the case of G74A A83G, the self-cleavage is reported as 0.205. With G74A A83C the self-cleavage was 0.232. G74C A77C gave a self-cleavage of 0.133. G74A A78C gave a self-cleavage of 0.0811. Variant G74A A78G has a self-cleavage of 0.111. With U72A G81A the self-cleavage was 0.113. With U72A G81U the self-cleavage was 0.166. Variant U72A G81C has a self-cleavage of 0.0898. For A71C A87G, the self-cleavage was 0.993. A71U G80A showed a self-cleavage of 0.175. G74C C84A gave a self-cleavage of 0.177. U72A G82C showed a self-cleavage of 0.208. A70U gave a self-cleavage of 0.953. U72A U79C gave a self-cleavage of 0.248. Variant A71G C84G has a self-cleavage of 0.465. A71G C84U gave a self-cleavage of 0.831. In the case of U72G C75A, the self-cleavage is reported as 0.0665. Variant U72G C75U has a self-cleavage of 0.0415. For U72G C75G, the self-cleavage was 0.262. Variant U72G C84A has a self-cleavage of 0.6. For U72G C84G, the self-cleavage was 0.214. For G73A, the self-cleavage was 0.691. In the case of G73U, the self-cleavage is reported as 0.382. G73C showed a self-cleavage of 0.505. G74A C84U gave a self-cleavage of 0.446. In the case of G73U C86A, the self-cleavage is reported as 0.543. Variant G73U C86U has a self-cleavage of 0.448. Variant C75G A87G has a self-cleavage of 0.108. C75G A87U showed a self-cleavage of 0.143. C75A A87U showed a self-cleavage of 0.111. Work on A71C C85G yielded a self-cleavage of 0.554. For A71G C86G, the self-cleavage was 1.01. A70U C85G showed a self-cleavage of 0.724. G73A G81A gave a self-cleavage of 0.176. Work on A71G A87U yielded a self-cleavage of 0.95. For A71G A87G, the self-cleavage was 1.06. Work on A70U G81A yielded a self-cleavage of 0.332. A70U G81U gave a self-cleavage of 0.469. With A70U G81C the self-cleavage was 0.193. Variant G74U C75U has a self-cleavage of 0.151. For G73A A83U, the self-cleavage was 0.323. With G73U A83C the self-cleavage was 0.17. A70U G74C gave a self-cleavage of 0.237. For G74A U79G, the self-cleavage was 0.356. G74C G81C gave a self-cleavage of 0.196. Variant G74C G81A has a self-cleavage of 0.0875. In the case of A71C C86U, the self-cleavage is reported as 0.665. A71C C86A gave a self-cleavage of 0.831. A70U A83C showed a self-cleavage of 0.458. For A70U A83U, the self-cleavage was 0.237. With C75A C86G the self-cleavage was 0.0997. In the case of G73A G74C, the self-cleavage is reported as 0.176. Work on G73A G74A yielded a self-cleavage of 0.248. Work on G73A G74U yielded a self-cleavage of 0.174. For G73C U79C, the self-cleavage was 0.161. Work on G73C U79G yielded a self-cleavage of 0.107. In the case of C75G C84A, the self-cleavage is reported as 0.259. In the case of C75G C84U, the self-cleavage is reported as 0.0978. With G73A C84U the self-cleavage was 0.665. Work on A71U C84G yielded a self-cleavage of 0.481. With A71U C84A the self-cleavage was 0.862. In the case of A71U C84U, the self-cleavage is reported as 0.475. For U72C A87U, the self-cleavage was 0.595. A71U C86G gave a self-cleavage of 0.752. A71U C86A gave a self-cleavage of 0.729. Work on A71G A78C yielded a self-cleavage of 0.138. In the case of C75A C85A, the self-cleavage is reported as 0.175. A70U C84U showed a self-cleavage of 0.627. Variant G74U C84A has a self-cleavage of 0.475. In the case of C75G U79A, the self-cleavage is reported as 0.123. In the case of G73C G74C, the self-cleavage is reported as 0.133. Work on A71G U79A yielded a self-cleavage of 0.997. In the case of A71G U79G, the self-cleavage is reported as 0.256. In the case of A70G U72C, the self-cleavage is reported as 0.54. Work on G74C C86U yielded a self-cleavage of 0.189. G74C C86G showed a self-cleavage of 0.201. For G74C C86A, the self-cleavage was 0.201. Variant G73U C85A has a self-cleavage of 0.397. G73U C85G gave a self-cleavage of 0.437. A70U G76U showed a self-cleavage of 1.07. For G73A C86U, the self-cleavage was 0.831. G73A C86G showed a self-cleavage of 0.609. For A70U A87G, the self-cleavage was 1.02. Work on A70U A87U yielded a self-cleavage of 1.2. C75G C85G gave a self-cleavage of 0.0923. In the case of C75G C85A, the self-cleavage is reported as 0.208. Variant G74A C86U has a self-cleavage of 0.604. For C75G G81C, the self-cleavage was 0.0831. G74C G80C showed a self-cleavage of 0.183. U72G A78U gave a self-cleavage of 0.356. With A70U C86A the self-cleavage was 1.02. Work on A70U C86G yielded a self-cleavage of 0.872. In the case of A70U C86U, the self-cleavage is reported as 1.07. Variant C75G A83C has a self-cleavage of 0.489. With C75G A83U the self-cleavage was 0.201. In the case of G74A G80C, the self-cleavage is reported as 0.167. G74A G80U showed a self-cleavage of 0.124. Variant G74A G80A has a self-cleavage of 0.182. For G74A G81C, the self-cleavage was 0.218. In the case of U72C U79A, the self-cleavage is reported as 0.369. In the case of U72C U79C, the self-cleavage is reported as 0.277. U72C G81A gave a self-cleavage of 0.356. Variant U72C G81C has a self-cleavage of 0.271. Variant U72C G80U has a self-cleavage of 0.0791. Work on G74C C75U yielded a self-cleavage of 0.108. Variant G74C C75A has a self-cleavage of 0.252. A71G G76U showed a self-cleavage of 1.1. In the case of U72G G80A, the self-cleavage is reported as 0.185. Work on U72G G73U yielded a self-cleavage of 0.554. In the case of U72G G73C, the self-cleavage is reported as 0.639. Variant U72C C75U has a self-cleavage of 0.192. Variant U72C C75A has a self-cleavage of 0.256. For A71U G82C, the self-cleavage was 0.135. Work on A71U G82U yielded a self-cleavage of 0.248. In the case of G74C G82U, the self-cleavage is reported as 0.179. U72C C85A showed a self-cleavage of 0.633. With U72C C85G the self-cleavage was 0.453. For A70U U79A, the self-cleavage was 0.831. A70U U79C showed a self-cleavage of 0.277. For G74C A78G, the self-cleavage was 0.113. With A71U A78U the self-cleavage was 0.185. For G73U A77C, the self-cleavage was 0.0898. Work on G73U A77G yielded a self-cleavage of 0.306. Work on G74A C85A yielded a self-cleavage of 0.657. Variant A71C U79A has a self-cleavage of 0.529. In the case of A71C U79G, the self-cleavage is reported as 0.437. Work on U72C A83G yielded a self-cleavage of 0.318. With A71C G82U the self-cleavage was 0.298. Variant A71C G82A has a self-cleavage of 0.111. G74C C85A showed a self-cleavage of 0.217. G74C C85U showed a self-cleavage of 0.128. For G74C A87G, the self-cleavage was 0.291. Variant G74C A87C has a self-cleavage of 0.212. Variant A71G C75A has a self-cleavage of 0.158. With A71G C75G the self-cleavage was 0.0755. G74U U79C gave a self-cleavage of 0.0963. Variant A71C G81C has a self-cleavage of 0.172. In the case of A71C G81A, the self-cleavage is reported as 0.309. G73U G81A showed a self-cleavage of 0.178. Variant G73U G81C has a self-cleavage of 0.115. A71G G80U showed a self-cleavage of 0.196. With A71G C85A the self-cleavage was 0.674. Work on A71G C85G yielded a self-cleavage of 1.03. Work on A71G C85U yielded a self-cleavage of 0.962. G73C A78C gave a self-cleavage of 0.0773. Variant G73C A78U has a self-cleavage of 0.155.
